Molecular target: the molecule itself
Experiment: bead aggregation assay

B1: hs PCDH24 EC1-MAD10Fc (Fc fusion)
chain: NVAPKFLANMTSVILPEDLPVGAQAFWLVAEDQDNDPLTYGMSGPNAYFFAVTPKTGEVKLASALDYETLYTFKVTISVSDPYIQVQREMLVIVEDRNDNAPVFQNTAFSTSINETLPVGSVVFSVLAVDKDMGSAGMVVYSIEKVIPSTGDSEHLFRILANGSIVLNGSLSYNNKSAFYQLELKACDLGGMYHNTFTIQCSLPVFLSISVVDQPDLDPQFVREFYSASVAEDAAKGTSVLTVEAVDGDKGINDPVIYSISYSTRPGWFDIGADGVIRVNGSLDREQLLEADEEVQLQVTATETHLNIYGQEAKVSIWVTVRVMDVNDHKPEFYNCSLPACTFTPEEAQVNFTGYVDEHASPRIPIDDLTMVVYDPDKGSNGTFLLSLGGPDAEAFSVSPERAVGSASVQVLVRVSALVDYERQTAMAVQVVATDSVSQNFSVAMVTIHLRDINDHRPTFPQSLYVLTVPEHSATGSVVTDSIHATDPDTGAWGQITYSLLPGNGADLFQVDPVSGTVTVRNGELLDRESQAVYYLTLQATDGGNLSSSTTLQIHLLDINDNAPVVSGSYNIFVQEEEGNVSVTIQAHDNDEPGTNNSRLLFNLLPGPYSHNFSLDPDTGLLRNLGPLDREAIDPALEGRIVLTVLVSDCGEPVLGTKVNVTITVEDINDNLPIFNQSSYNFTVKEEDPGVLVGVVKAWDADQTEANNRISFSLSGSGANYFMIRGLVLGAGWAEGYLRLPPDVSLDYETQPVFNLTVSAENPDPQGGETIVDVCVNVKDVNDNPPTLDVASLRGIRVAENGSQHGQVAVVVASDVDTSAQLEIQLVNILCTKAGVDVGSLCWGWFSVAANGSVYINQSKAIDYEACDLVTLVVRACDLATDPGFQAYSNNGSLLITIEDVNDNAPYFLPENKTFVIIPELVLPNREVASVRARDDDSGNNGVILFSILRVDFISKDGATIPFQGVFSIFTSSEADVFAGSIQPVTSLDSTLQGTYQVTVQARDRPSLGPFLEATTTLNLFTVDQSYRSRLQFSTPKEEVGANRQAINAALTQATRTTVYIVDIQDIDSAARARPHSYLDAYFVFPNGSALTLDELSVMIRNDQDSLTQLLQLGLVVLGSQESQESDLSKQLIS
  binding result: binds
